The record followed here is patent US20060216279A1.

This test addresses rmGDF8 (R&D) (mouse (from the label rmGDF8 only)) (UniProt O08689). As to the kind of experiment: Biacore, trap captured on amine-coupled Protein A (CM5), rmGDF8 0.312-20 nM as analyte. A general note: SPR reads the build-up and loss of mass on a sensor chip optically.
UniProt O08689, sequence (O08689 268-376 limits assumed): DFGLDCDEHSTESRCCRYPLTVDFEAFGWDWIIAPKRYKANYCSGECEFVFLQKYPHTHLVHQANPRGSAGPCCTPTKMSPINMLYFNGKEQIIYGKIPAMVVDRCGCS

A word on the Kd: it is the equilibrium constant for the complex coming apart. The low end stands for higher affinity, the high end for lower affinity. One may read the koff as the rate constant with which the complex falls apart. Lower therefore signals a long-lived complex. As a reminder, the kon is a measure of how fast the partners come together. A word on the t½: it is how long it takes for the measured level to halve. The substance hGDF8(1-38, 43-64)-hFc (Fc fusion) displayed a Kd of 0.0133 nM, a koff of 6.2e-05 s⁻¹, a kon of 4.66e+06 M⁻¹ s⁻¹ and a t½ of 3.1 h.
